In test [1] the target is T1, full-length human FcγRIIIa variant V/V expressed on CHO cells (human, UniProt P08637 17-254).
T1 construct: whole, on cells; also called human FcγRIIIa-CHO (variant V/V); human FcγRIIIa (V/V) CHO cells
Put plainly: flow cytometry, human FcγRIIIa (V/V) CHO cells, geomean of 2 experiments. As to the method: The ability of anti-TIGIT×CD96 multispecific molecules to bind to variant V/V or variant F/F of human FcγRIIIa expressed on the surface of CHO cells was assessed. Briefly, CHO cells were transfected with a vector encoding full-length human FcγRIIIa (human FcγRIIIa-CHO) variant V/V or F/F, and clones stably expressing FcγRIIIa (variant V/V or variant F/F) were selected.
(§1) For the antibody binding assay, a frozen aliquot of human FcγRIIIa-CHO (variant V/V or variant F/F) cells was thawed at 37° C. and then transferred to a tube containing DPBS supplemented with 0.5% Bovine Serum Albumin and 0.05% Sodium Azide (FACS Buffer). Cells were centrifuged at 300 g for five minutes. The supernatant was discarded, and cells resuspended in FACS buffer were seeded in a 96-well U-bottom tissue culture plate at a density of 2×10⁵ cells per well in 50 μL. In a separate microplate, a 2× concentrated intermediate stock of each multispecific molecule was prepared. […] After a 30-minute incubation on ice, the cells were washed twice with cold FACS Buffer, and the cells were analyzed by flow cytometry (BD LSR Fortessa Flow Cytometer). The data were analyzed using the FlowJo software by sequentially gating the FSC-A vs. SSC-A, and SSC-H vs. SSC-A. Mean fluorescence intensity (MFI) values for PE were calculated, and the data were plotted by GraphPad Prism software.

Test [2] has as its target T2, wild type full-length cynomolgus monkey TIGIT expressed on CHO cells (cynomolgus monkey, UniProt A0A7N9I9V4 89-312).
T2 construct: whole, on cells; also called cynomolgus TIGIT-CHO cells
Briefly: flow cytometry, cynomolgus TIGIT CHO cells, geomean of 2 experiments. (In general: A flow cytometer gives signals particle by particle.)

Test [3] addresses T3, wild type full-length human CD96 isoform 2 expressed on CHO cells (human, UniProt P40200-2 22-569).
T3 construct: whole, on cells; also called human CD96-CHO (isoform 2); human CD96 (iso2) CHO cells
T3 sequence (looked up): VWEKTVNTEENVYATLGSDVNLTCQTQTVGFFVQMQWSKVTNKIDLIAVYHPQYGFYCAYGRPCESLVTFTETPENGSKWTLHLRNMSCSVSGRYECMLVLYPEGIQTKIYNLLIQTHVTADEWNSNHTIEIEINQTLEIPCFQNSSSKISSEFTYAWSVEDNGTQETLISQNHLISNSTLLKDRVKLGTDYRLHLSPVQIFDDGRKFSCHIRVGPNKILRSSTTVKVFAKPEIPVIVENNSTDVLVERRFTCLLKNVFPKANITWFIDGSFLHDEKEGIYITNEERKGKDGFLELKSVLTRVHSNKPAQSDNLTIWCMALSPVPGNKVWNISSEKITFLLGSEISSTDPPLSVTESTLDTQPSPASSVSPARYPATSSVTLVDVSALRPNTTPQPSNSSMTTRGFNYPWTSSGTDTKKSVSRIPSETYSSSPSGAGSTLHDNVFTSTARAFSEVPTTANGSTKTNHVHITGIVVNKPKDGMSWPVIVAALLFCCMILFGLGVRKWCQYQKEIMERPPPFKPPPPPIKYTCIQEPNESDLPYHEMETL
Put plainly: flow cytometry, human CD96 (isoform 2) CHO cells, geomean of 2 experiments. As to the method: as §1, with “CD96-CHO cells (isoform 1” for “FcγRIIIa-CHO (variant V/V”, “isoform 2)” for “variant F/F) cells”, “antibody” for “multispecific molecule”, “prepared. Antibodies were serially diluted 1-to-3 in FACS buffer. A total of 11 working dilutions ranging from 60 μg/mL to 0.001 μg/mL were prepared. Fifty microlitres of each dilution were then transferred to the microplate containing human CD96-CHO cells. The cells were then incubated for 45 minutes at 4° C.” for “prepared.”

Test [4] addresses T4, full-length ECD of cynomolgus monkey TIGIT (His-tagged) (cynomolgus monkey).
T4 construct: also called His-tagged cynomolgus monkey TIGIT; cyno TIGIT extracellular domain
Briefly: SPR Biacore T200, geomean of experiments #1 and #2. The protocol:
Briefly, surface plasmon resonance experiments were performed using a Biacore T200 instrument, and the association rate (kₐ), dissociation rate (kd), and dissociation constant (KD) were calculated from each experiment using a 1:1 binding model with Biacore T200 Evaluation Software.
Multispecific molecules were captured using a 30-sec injection at a flow rate of 10 μl/min to reach about 350 resonance units (RUs). […] The sensor chip was regenerated between cycles with two 30-sec injections of 10 mM glycine, pH 1.5. Sensorgrams were evaluated and fit to a simple Langmuir 1:1 interaction model using the global data analysis option of BIAevaluation 3.0 software. Data quality was verified by visually inspecting deviations and curve fitting, and by evaluating the parameters of Rₘₐₓ, Chi2, and Tc.

T1 sequence (P08637 other isoform, or with tags, fused parts or gaps mutant limits assumed): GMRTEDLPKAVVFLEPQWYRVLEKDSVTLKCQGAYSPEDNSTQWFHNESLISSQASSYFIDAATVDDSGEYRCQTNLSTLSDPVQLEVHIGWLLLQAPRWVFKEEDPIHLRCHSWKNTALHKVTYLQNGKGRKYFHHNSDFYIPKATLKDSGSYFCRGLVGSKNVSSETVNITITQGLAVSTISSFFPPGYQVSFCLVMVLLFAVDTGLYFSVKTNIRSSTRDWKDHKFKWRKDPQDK
T2 sequence (A0A7N9I9V4 entry or part of it): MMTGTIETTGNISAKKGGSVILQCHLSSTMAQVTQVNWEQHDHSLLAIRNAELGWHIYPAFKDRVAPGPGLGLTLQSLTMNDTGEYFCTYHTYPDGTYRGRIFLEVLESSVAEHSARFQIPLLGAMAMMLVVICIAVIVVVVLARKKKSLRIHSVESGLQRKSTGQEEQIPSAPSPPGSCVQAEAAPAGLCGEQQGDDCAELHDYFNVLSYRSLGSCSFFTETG

B1: anti-TIGIT×CD96 multispecific molecule BA123 (bispecific antibody, human IgG1, kappa, lambda)
heavy 1: QVQLVQSGAEVKKPGASVKVSCKASGYTFTSYGISWVRQAPGQGLEWMGWISAYNANTNYAQKLQGRVTMTTDTSTSTAYMELRSLRSDDTAVYYCARSAGVLGGMDVWGRGTLVTVSSASTKGPSVFPLAPSSKSTSGGTAALGCLVKDYFPEPVTVSWNSGALTSGVHTFPAVLQSSGLYSLSSVVTVPSSSLGTQTYICNVNHKPSNTKVDKRVEPKSCDKTHTCPPCPAPELLGGPDVFLFPPKPKDTLMISRTPEVTCVVVDVSHEDPEVKFNWYVDGVEVHNAKTKPREEQYNSTYRVVSVLTVLHQDWLNGKEYKCKVSNKALPAPIEKTISKAKGQPREPQVYTLPPSREEMTKNQVSLSCAVKGFYPSDIAVEWESNGQPENNYKTTPPVLDSDGSFFLVSKLTVDKSRWQQGNVFSCSVMHEALHNHYTQKSLSLSPG
light 1: not shown
heavy 2: EVQLVQSGAEVKKPGSSVKVSCKASGYTFASYGISWVRQAPGQGLEWMGGITPFFNRVDVAEKFQGRVTITADKSTSTAYIELSSLRSEDTAVYYCARDLRRGGVGDAFDIWGRGTLVTVSSASTKGPSVFPLAPSSKSTSGGTAALGCLVKDYFPEPVTVSWNSGALTSGVHTFPAVLQSSGLYSLSSVVTVPSSSLGTQTYICNVNHKPSNTKVDKRVEPKSCDKTHTCPPCPAPELLGGPDVFLFPPKPKDTLMISRTPEVTCVVVDVSHEDPEVKFNWYVDGVEVHNAKTKPREEQYNSTYRVVSVLTVLHQDWLNGKEYKCKVSNKALPLPEEKTISKAKGQPREPQVYTLPPSREEMTKNQVSLWCLVKGFYPSDIAVEWESNGQPENNYKTTPPVLDSDGSFFLYSKLTVDKSRWQQGNVFSCSVMHEALHNHYTQKSLSLSPG
light 2: QSALTQPRSVSGSPGQSVTISCTGTSPDVGSHAYRSWYQQHPGKAPKLMIYEVSYRPSGVSNRFSGSKSGNTASLTISGLQAEDEADYYCSSYPPSSATVFGAGTKLTVLGQPKAAPSVTLFPPSSEELQANKATLVCLISDFYPGAVTVAWKADSSPVKAGVETTTPSKQSNNKYAASSYLSLTPEQWKSHRSYSCQVTHEGSTVEKTVAPTEC
notes: copies: 1 + 1 + 1 + 1
With B1, the concentration giving a half-maximal response (EC50) in test [1] is 0.189 µg/mL; in test [2] it was 0.165 µg/mL; in test [3], 0.196 µg/mL. For the same molecule, the dissociation constant Kd in test [4] was determined as 4.5 nM.

B2: anti-TIGIT×CD96 multispecific molecule BA127 (bispecific antibody, human IgG1, kappa, lambda)
heavy 1: QVQLVQSGAEVKKPGASVKVSCKASGYTFTTYALHWVRQAPGQRLEWMGWINTGSGDTKYSQKFQGRVTITRDTSASTAYMELSSLRSEDTAVYYCARSLGVYYGMDVWGQGTLVTVSSASTKGPSVFPLAPSSKSTSGGTAALGCLVKDYFPEPVTVSWNSGALTSGVHTFPAVLQSSGLYSLSSVVTVPSSSLGTQTYICNVNHKPSNTKVDKRVEPKSCDKTHTCPPCPAPELLGGPDVFLFPPKPKDTLMISRTPEVTCVVVDVSHEDPEVKFNWYVDGVEVHNAKTKPREEQYNSTYRVVSVLTVLHQDWLNGKEYKCKVSNKALPAPIEKTISKAKGQPREPQVYTLPPSREEMTKNQVSLSCAVKGFYPSDIAVEWESNGQPENNYKTTPPVLDSDGSFFLVSKLTVDKSRWQQGNVFSCSVMHEALHNHYTQKSLSLSPG
light 1: not shown
heavy 2: EVQLVQSGAEVKKPGSSVKVSCKASGYTFASYGISWVRQAPGQGLEWMGGITPFFNRVDVAEKFQGRVTITADKSTSTAYIELSSLRSEDTAVYYCARDLRRGGVGDAFDIWGRGTLVTVSSASTKGPSVFPLAPSSKSTSGGTAALGCLVKDYFPEPVTVSWNSGALTSGVHTFPAVLQSSGLYSLSSVVTVPSSSLGTQTYICNVNHKPSNTKVDKRVEPKSCDKTHTCPPCPAPELLGGPDVFLFPPKPKDTLMISRTPEVTCVVVDVSHEDPEVKFNWYVDGVEVHNAKTKPREEQYNSTYRVVSVLTVLHQDWLNGKEYKCKVSNKALPLPEEKTISKAKGQPREPQVYTLPPSREEMTKNQVSLWCLVKGFYPSDIAVEWESNGQPENNYKTTPPVLDSDGSFFLYSKLTVDKSRWQQGNVFSCSVMHEALHNHYTQKSLSLSPG
light 2: QSALTQPRSVSGSPGQSVTISCTGTSPDVGSHAYRSWYQQHPGKAPKLMIYEVSYRPSGVSNRFSGSKSGNTASLTISGLQAEDEADYYCSSYPPSSATVFGAGTKLTVLGQPKAAPSVTLFPPSSEELQANKATLVCLISDFYPGAVTVAWKADSSPVKAGVETTTPSKQSNNKYAASSYLSLTPEQWKSHRSYSCQVTHEGSTVEKTVAPTEC
notes: Anti-CD96 arm = BA139, anti-TIGIT arm = BA150; copies: 1 + 1 + 1 + 1
Take B2: the EC50 turned out to be 0.148 µg/mL in test [1], 0.258 µg/mL in test [2] and 0.0951 µg/mL in test [3]. In addition, the equilibrium dissociation constant (Kd) in test [4] worked out at 4 nM.

Broadly, the EC50 is the concentration at which the effect is half-maximal. By Kd is commonly meant the concentration at which binding is half-saturated.

(Values after US20240141039A1 (AGENUS, published 2024).)
